Experimental data as given in patent publication US20140072613A1, “Compositions and Methods for Treating Cutaneous Scarring” (priority 2012, published 2014).

How the values were obtained:
[1] = target: T1, DRAK1 (h) (Homo sapiens, UniProt Q9UEE5); experiment: Millipore radiometric kinase assay (IC50 Profiler Express); format: biochemical; conditions: DRAK1(h); 100 μM
T1 sequence (Q9UEE5 1-414): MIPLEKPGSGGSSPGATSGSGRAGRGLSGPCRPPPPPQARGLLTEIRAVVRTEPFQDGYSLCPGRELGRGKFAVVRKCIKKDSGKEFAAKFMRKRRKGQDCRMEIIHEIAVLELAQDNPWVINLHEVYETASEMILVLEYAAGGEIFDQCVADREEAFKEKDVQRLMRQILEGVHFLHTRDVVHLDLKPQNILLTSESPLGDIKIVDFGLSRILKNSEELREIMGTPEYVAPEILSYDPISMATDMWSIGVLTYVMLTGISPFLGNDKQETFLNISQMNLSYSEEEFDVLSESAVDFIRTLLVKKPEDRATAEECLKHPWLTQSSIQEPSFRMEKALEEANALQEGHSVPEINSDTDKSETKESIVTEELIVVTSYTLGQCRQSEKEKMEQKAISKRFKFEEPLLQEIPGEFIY
From the text: (§1) Specifically, in these assays, a positively charged substrate is phosphorylated with a radiolabeled phosphate group from an ATP if the kinase is not inhibited by an inhibitor peptide. The positively charged substrate then is attracted to a negatively charged filter membrane, quantified with a scintillation counter, and compared to a 100% activity control.

[2] = target: T2, DMPK (h) (Homo sapiens, UniProt Q09013); experiment: as above; format: biochemical; conditions: DMPK(h); 100 μM
T2 sequence (Q09013 1-629): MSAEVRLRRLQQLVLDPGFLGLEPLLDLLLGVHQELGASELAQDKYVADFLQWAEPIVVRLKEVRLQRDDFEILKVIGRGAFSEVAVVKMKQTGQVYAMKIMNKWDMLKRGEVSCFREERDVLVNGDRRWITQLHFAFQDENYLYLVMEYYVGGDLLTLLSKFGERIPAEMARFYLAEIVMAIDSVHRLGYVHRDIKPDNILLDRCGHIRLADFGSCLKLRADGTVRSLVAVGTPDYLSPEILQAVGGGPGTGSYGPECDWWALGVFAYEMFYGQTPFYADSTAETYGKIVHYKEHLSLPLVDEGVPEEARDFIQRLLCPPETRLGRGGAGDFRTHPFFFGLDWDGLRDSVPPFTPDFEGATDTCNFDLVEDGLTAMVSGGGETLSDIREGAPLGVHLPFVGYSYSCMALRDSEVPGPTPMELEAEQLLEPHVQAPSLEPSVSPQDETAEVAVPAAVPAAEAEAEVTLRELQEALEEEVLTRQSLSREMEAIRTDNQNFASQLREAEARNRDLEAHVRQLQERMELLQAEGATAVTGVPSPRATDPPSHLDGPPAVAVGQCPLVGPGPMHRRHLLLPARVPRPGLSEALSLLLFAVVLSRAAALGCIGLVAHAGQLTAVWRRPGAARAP
From the text: as §1

[3] = target: LOK (h) (Homo sapiens, UniProt O94804); experiment: as above; format: biochemical; conditions: LOK(h); 100 μM
Sequence of LOK (h) (O94804 whole entry): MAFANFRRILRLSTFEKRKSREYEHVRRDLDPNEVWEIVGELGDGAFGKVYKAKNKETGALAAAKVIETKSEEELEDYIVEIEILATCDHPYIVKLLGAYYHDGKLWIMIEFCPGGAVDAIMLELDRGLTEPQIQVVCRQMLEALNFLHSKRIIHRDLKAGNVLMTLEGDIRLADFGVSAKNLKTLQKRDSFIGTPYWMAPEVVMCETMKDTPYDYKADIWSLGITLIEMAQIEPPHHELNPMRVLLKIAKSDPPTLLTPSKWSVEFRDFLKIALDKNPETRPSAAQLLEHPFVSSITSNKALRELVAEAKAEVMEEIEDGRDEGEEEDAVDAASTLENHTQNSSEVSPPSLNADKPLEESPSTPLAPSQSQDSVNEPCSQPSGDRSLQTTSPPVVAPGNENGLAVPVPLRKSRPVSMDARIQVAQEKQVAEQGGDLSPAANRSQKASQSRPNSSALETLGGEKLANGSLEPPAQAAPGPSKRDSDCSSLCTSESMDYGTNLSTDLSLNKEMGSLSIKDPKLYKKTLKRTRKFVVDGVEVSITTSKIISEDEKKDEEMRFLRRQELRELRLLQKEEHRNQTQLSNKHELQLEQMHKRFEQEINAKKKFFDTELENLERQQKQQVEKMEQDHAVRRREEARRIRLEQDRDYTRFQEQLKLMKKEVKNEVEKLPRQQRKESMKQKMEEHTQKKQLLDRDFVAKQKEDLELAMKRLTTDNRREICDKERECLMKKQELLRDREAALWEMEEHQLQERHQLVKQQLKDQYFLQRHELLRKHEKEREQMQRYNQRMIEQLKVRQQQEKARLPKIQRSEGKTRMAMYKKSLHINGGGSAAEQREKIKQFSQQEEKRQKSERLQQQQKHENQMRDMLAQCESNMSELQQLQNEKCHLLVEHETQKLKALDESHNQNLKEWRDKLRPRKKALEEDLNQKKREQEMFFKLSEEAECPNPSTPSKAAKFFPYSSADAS
From the text: as §1

[4] = target: EGFR (L861Q) (h) (Homo sapiens, UniProt P00533, L861Q); experiment: as above; format: biochemical; conditions: EGFR(L861Q)(h); 100 μM
From the text: as §1

[5] = target: 266 human kinases (Homo sapiens, UniProt O60674); experiment: biochemical; format: biochemical; conditions: JAK2(h); 100 μM
Sequence of 266 human kinases (Homo sapiens, UniProt O60674) (O60674 whole entry): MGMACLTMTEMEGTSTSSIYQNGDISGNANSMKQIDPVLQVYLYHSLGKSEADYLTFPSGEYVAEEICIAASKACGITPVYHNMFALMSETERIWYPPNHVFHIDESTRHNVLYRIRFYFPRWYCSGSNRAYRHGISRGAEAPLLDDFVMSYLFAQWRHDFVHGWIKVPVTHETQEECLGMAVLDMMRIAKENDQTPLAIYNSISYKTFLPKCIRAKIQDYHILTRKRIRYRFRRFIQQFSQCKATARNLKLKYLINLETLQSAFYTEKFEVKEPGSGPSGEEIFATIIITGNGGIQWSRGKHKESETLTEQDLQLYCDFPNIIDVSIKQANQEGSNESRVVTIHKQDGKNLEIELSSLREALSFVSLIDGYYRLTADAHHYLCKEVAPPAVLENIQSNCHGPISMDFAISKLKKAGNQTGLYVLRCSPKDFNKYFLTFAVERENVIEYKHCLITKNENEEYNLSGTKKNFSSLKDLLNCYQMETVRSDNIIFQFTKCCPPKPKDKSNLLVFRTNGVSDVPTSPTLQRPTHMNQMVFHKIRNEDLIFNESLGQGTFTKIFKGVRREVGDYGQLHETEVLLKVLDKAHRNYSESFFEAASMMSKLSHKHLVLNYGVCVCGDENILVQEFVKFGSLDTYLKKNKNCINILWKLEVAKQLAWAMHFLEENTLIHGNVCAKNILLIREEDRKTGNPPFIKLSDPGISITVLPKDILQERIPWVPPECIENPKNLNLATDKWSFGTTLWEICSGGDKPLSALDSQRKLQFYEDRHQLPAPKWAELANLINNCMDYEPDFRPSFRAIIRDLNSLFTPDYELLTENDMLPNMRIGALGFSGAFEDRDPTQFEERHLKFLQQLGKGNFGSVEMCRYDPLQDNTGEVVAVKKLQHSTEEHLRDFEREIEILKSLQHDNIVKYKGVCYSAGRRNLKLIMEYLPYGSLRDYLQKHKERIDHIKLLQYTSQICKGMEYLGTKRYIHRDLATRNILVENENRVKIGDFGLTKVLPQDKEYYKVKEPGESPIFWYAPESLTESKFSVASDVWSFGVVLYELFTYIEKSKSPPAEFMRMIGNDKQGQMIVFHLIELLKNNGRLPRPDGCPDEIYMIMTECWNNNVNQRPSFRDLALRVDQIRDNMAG
Procedure, shortened: (§2)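 Radiometric filter-binding format: a positively charged substrate takes up radiolabelled phosphate from ATP unless the kinase is inhibited, then is captured on a negatively charged filter membrane. Counts from scintillation are expressed relative to a 100% activity control.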

[6] = target: 266 human kinases (Homo sapiens, UniProt P31749); experiment: biochemical; format: biochemical; conditions: PKBα(h); 100 μM
Sequence of 266 human kinases (Homo sapiens, UniProt P31749) (P31749 whole entry): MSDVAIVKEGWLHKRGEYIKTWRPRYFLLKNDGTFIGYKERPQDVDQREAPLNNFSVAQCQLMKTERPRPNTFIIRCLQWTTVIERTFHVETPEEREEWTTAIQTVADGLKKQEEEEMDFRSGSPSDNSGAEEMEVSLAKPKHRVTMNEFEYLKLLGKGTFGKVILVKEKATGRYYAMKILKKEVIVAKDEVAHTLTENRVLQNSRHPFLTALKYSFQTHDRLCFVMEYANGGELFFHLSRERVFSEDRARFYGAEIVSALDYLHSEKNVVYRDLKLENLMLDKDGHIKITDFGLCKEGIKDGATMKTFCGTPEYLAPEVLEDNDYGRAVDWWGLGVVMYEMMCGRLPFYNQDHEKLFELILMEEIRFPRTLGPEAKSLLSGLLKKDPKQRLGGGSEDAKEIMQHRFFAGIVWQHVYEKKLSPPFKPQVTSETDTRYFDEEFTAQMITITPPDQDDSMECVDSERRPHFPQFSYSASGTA
Procedure, shortened: as §2

[7] = target: 266 human kinases (Homo sapiens, UniProt P00519); experiment: biochemical; format: biochemical; conditions: Abl(h); 100 μM
Sequence of 266 human kinases (Homo sapiens, UniProt P00519) (P00519 whole entry): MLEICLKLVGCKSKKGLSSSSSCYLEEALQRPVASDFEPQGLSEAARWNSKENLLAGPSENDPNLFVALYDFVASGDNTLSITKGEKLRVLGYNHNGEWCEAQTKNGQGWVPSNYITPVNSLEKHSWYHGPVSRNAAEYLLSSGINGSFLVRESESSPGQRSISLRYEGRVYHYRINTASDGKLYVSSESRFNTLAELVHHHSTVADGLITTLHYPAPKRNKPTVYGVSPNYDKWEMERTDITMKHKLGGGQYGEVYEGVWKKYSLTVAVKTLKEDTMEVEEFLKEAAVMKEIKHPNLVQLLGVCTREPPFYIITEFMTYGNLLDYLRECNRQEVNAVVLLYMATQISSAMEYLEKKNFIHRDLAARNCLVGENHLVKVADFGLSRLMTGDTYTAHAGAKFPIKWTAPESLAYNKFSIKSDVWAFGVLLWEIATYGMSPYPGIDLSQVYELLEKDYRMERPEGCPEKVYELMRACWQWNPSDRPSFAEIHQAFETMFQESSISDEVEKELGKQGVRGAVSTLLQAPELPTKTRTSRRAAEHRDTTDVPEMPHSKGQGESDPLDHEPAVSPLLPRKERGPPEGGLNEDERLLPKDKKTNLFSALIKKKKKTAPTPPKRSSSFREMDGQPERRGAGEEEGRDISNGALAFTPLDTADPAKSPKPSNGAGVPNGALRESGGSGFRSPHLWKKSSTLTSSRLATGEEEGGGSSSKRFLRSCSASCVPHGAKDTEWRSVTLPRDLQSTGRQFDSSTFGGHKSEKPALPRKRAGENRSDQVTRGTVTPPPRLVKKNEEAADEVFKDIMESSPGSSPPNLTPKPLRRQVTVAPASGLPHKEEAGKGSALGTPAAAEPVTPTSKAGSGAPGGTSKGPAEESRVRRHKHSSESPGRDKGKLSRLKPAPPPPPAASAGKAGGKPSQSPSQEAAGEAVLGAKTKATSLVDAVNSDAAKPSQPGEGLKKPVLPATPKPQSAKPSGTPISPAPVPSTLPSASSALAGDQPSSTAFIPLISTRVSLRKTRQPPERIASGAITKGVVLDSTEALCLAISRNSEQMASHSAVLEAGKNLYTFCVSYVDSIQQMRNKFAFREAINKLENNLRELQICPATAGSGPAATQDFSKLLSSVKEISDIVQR
Procedure, shortened: as §2

[8] = target: T3, 266 human kinases (Homo sapiens, UniProt P52333); experiment: biochemical; format: biochemical; conditions: JAK3(h); 100 μM
T3 sequence (P52333 1-1124): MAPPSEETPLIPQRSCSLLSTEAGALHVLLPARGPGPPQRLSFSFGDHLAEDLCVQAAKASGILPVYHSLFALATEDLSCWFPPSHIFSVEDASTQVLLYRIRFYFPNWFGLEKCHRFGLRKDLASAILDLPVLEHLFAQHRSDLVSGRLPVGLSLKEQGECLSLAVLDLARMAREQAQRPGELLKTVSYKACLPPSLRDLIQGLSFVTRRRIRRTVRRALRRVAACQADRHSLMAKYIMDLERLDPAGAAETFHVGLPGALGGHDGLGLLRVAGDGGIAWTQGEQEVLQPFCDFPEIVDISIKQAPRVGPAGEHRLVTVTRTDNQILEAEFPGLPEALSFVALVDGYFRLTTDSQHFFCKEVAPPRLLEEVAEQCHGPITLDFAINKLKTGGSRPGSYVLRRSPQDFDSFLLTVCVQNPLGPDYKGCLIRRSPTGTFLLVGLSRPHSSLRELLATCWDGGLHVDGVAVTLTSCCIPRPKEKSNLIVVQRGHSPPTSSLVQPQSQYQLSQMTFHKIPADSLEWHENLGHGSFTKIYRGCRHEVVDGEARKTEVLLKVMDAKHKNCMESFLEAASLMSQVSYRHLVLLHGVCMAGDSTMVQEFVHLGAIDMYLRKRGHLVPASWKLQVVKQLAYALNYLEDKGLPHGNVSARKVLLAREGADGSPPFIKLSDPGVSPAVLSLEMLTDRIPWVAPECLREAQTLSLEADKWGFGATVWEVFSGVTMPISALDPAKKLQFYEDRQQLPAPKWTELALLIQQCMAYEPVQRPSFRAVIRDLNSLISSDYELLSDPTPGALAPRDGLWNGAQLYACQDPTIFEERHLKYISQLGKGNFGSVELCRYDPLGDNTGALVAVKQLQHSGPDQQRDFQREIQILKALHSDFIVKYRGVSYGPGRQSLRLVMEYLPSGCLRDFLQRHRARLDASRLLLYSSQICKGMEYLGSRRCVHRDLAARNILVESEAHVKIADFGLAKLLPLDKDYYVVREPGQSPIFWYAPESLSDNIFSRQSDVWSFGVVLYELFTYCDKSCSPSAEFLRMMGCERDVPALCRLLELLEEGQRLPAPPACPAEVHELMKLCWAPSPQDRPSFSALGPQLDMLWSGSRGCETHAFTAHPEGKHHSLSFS
Procedure, shortened: as §2

[9] = target: Fgr (h) (Homo sapiens, UniProt P09769); experiment: biochemical; conditions: Fgr(h); 100 μM
From the text: as §1

[10] = target: Yes (h) (Homo sapiens, UniProt P07947); experiment: biochemical; conditions: Yes(h); 100 μM
Sequence of Yes (h) (P07947 whole entry): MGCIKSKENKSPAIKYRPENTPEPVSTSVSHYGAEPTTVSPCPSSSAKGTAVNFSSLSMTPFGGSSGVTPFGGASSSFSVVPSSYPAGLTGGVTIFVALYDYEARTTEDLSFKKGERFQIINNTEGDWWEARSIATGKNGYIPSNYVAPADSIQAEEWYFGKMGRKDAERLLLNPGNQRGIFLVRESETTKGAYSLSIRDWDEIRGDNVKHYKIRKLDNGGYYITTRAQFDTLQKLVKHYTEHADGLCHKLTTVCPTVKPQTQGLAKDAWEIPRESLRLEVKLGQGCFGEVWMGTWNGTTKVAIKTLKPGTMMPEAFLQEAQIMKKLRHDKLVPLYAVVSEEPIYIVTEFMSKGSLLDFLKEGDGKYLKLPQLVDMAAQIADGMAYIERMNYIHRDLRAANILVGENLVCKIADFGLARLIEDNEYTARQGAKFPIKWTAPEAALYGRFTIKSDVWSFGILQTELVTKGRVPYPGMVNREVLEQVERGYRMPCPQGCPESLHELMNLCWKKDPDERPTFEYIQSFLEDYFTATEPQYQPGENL
From the text: as §1

[11] = target: EphA2 (h) (Homo sapiens, UniProt P29317); experiment: biochemical; conditions: EphA2(h); 100 μM
From the text: as §1

For “HRRIKAWLKKIKALARQLGVAA (mammal) [MMI-0500]”, the “% activity” value [1] was 8%, the “% activity” value [2] was 12% and the “% activity” value [3] was 7%. For the same sequence, the “% activity” value [4] was 15%, the “% activity” value [5] was 49% and the “% activity” value [6] was 30%. The “% activity” value [7] was 16% and the “% activity” value [8] was 95%.

In the case of “YARAAARQARAKALNRQLGVA (mammal) [MMI-0200]”, the “% activity” value [1] is reported as 34%, the “% activity” value [2] is reported as 66% and the “% activity” value [3] is reported as 67%. For the same sequence, the “% activity” value [4] was 74%, the “% activity” value [9] was 71% and the “% activity” value [10] was 93%. For the same sequence, the “% activity” value [11] was 95%, the “% activity” value [5] was 131% and the “% activity” value [6] was 110%.
